Data as given in a protein production outcome set (Wang et al. 2014).

Experiment: label from the status in PepcDB records

Sequence | protein production
MSWLIHAGEGRQYQVAPPVSWSQSYAEARMTDIQRLDDQTVERIAAGEVVERPASVVKELVENAIDADASRVDVVVEAGGTDGIRVTDDGIGMDREAVKTAVEEHTTSKIRDIADLEGGVGTLGFRGEALHAIGAVSRLTIRTRPRGGDVGTELVLEGGDVTSVSPAGCPEGTTMAVEDLFYNVPARRKYLKQESTEFAHVNTVVASYALANPDVAVSLTHGDRETFSTTGQGDLRETVMSVYGREVAESMISVGAGSEATGSGDEMDSFPDGPLDGVHGLVSHPETNRAGREYLSTYVNGRYVRAGTVRDAVIDAYGTQIAPDRYPFAVLFLDVPAGDVDVNVHPRKMEVRFADDEGVREQVRTAVEDALLREGLLRSTAPRGRSAPEQTEITPESDGATDSGGERAAPNGRDAIDDATTSGQTDTTATENSAEAPAQEPDTAPTARPDGTQTETGNCESSDTAPSIQSADTKPSSETGRTDGTSGESGTGQTGGSVSGGDSDSERPGASATGQTAAERGERKFTGGQEQARLGDDPEATHESLPSMRILGQLADTYVVAETDDGLVLVDQHAADERVNYERLKAKFEGETTTQALANPVELGLTAREAEVFDRRSDALASLGFHTARTGERSVEVRTLPGVIADAAGPDIVRDVLGAFVAGDDEAAATVEAAADELLGDLACYPSVTGNTSLTEGSVRELLAALDDCENPYACPHGRPTVIHIDRQELEDRFERDYPGHGGRRR | failed
MPILIVAVGVLILLFLIIKVKLNTFVSLIVVSFLVAIGLGMDINKIVLSIETGIGGQLGHLALVFGLGAMLGRLVSDAGGGYRIAITLIDKFGRKRIQAAVVVASFIIGIALFFEVGLVLLIPIVYAIAKELKMPFLYLGIPMAAALNVTHGFLPPHPAPTAISVAYGAHIGQVLLFGIIIAVPTTVIAGPLFNKFAMKRFPGAYQKHGNLSGLGPRKEFQLDETPGFAISAVTSLFPVIFMAMATIFSLLLSEHSKGKDIIEFIGTPGTAMLISLLLALYTMGYARKISMQEIGRSISESISQIAMMLLIIGGGGAFKQVLIDGGVGDYVADFFRQTNMSPLFVAWTIAAVLRLCLGSATVAALTTAGMAAPLMEAGSVNPALMVLATGAGSVIACHVNDAGFWMVKEFFGLSMKETFQTWTLLTTVLSVTGLGCVLLAGLVM | failed
YDASPAYYLYTSGSTGTPKCVVLNNRATAHVLQETIDFWGINDKDIHLAATPFHHDMSIFDLMAPLSVGGTLVVPTLEEAKSAVAWAELIERYQVSIWCTVPAMVDMLLTSAEPSQLQSIRLINQGGDYVKPSVVQKLREILPNTRLISIGGPTETTIWSIWHEITSEDI | failed
MDPDNRVRQRAVKTLGKRGNPDVLEDLMEALKDSRQPVQEAASEALRKIIAASDSVPVLVKALDATDRNVRKAAIEALWKAGTPEAIPPLLRELDDADWYLRSRAADALADIASPEAALGLIKVMDIHDSPVKKIIVNALGKIGTVEAVEGLVKALEDLEHHHHHH | not failed
MKITVIVPTYRRTKDLTRCLESLEKQSRPADEVLVVVRDTDVETWQFLETIAPHSLPLHTTTVRVPGVVAAMNAGLDIAQGDIIAFTDDDAAPHSNWLAQIETHFLAHEQIAGVGGRDWVYHGDRLEDGTCPVVGQVHWFGRVIGNHHIGIGKPREVDVLKGVNMSFRRSAVHGLRFDQRMLGTGAQVHFEVAFCLALKRAGWKLIYDPQIGVNHYLEHHHHHH | failed
MTGEGTNYLIVGSDSRAGMSAEEKKKLHTGSAEGKRTDSMMILHTGDNGSTLVSLPRDSDVEIPTFKGSTSGKTYPGTGRHVKLNAAYAEDGPELLVRTIEYNTGLHIDHYVEIGFAGFANIVDSVGGVEMTLDKGFKDTFSGADFKAGKQTLNGEQALAFVRTRHAFAASDLERTKNQQKFLSALAHQVATPSTVLNPFKLYPTLSSGLDTLIVDKDMGLFDLADMFWAMKGVTGGDGTSMNMPISGSSGGNLVWDKAKVKALVNELKNDEKVTVSGNLEHHHHHH | not failed
MPDACFSDGDPIVLVVLGYVVVVVAVLGGYALTGGHMGALYQPAELIIIGGAAVGAFISSNSGKAIKATMKAMPSLLKGSKYKKELYLDVMALLYVLLSKARREGILFLEKEIADPASSSVFSQYPRILADAKMMEFLTDYLRMMVNGNMNAFEIEALMDHEIETVRHEAEIPAHALSRVGDGLPAFGIVAAVMGVVHALASADLPPAELGALIANAMVGTFLGILLAYGFVSPLASRVEHQVSESIKMYECIKVTLLASLNGYAPLVAVEFGRKVLYSTVRPSFLELDDHVREVKSLT | failed
MLTLEIFRALLLGFTIGLTGALVPGPMLFATIELSLKKGWLAGPEVVFGHILVELVLSILILFGVASFIGSGAISAVSIIGGFSLTVFGLLTVKDAKTTASAGLSPETSGLKLTSNPVALGLITSVSNPYFWIWWLTAGSALVLKAYELGIIISIAYILGHWTADLSWFTAISGSFSRGKTLFSQQTHRYILYACGTFLIFFGLYFMFNYKGAAQLF | failed
